Test results reported in patent publication US20220280636A1 (Merck Sharp & Dohme, published 2022).

Columns and labels:
[1] = target: T1, gI-2t 262 (HSV-2, UniProt P06764 21-262); experiment: SEC-MALS of the gE-2t 417 / gI-2t 262 heterodimer complex
T1 construct: Partner of gE-2t 417 in the SEC-MALS analysis of complex formation; also called soluble gI-2; not shown: glycine linker and thrombin-cleavable 6-Histidine tag

[2] = target: T2, human IgG Fc (human); experiment: SPR; IgG amine coupled to CM5 chip, construct flowed at 750 ug/ml; end-point RU of association phase
T2 construct: domain: Fc; Immobilised partner in SPR; also called human IgG Fc domain

[3] = target: T3, human whole molecule IgG (human); experiment: as above
T3 construct: Immobilised partner in SPR; also called Human IgG; Human IgG Whole Molecule

[4] = target: T4, rabbit whole molecule IgG (rabbit); experiment: as above
T4 construct: Immobilised partner in SPR; also called Rabbit IgG; Rabbit IgG Whole Molecule

[5] = target: T5, mouse whole molecule IgG (mouse); experiment: as above
T5 construct: Immobilised partner in SPR; also called Mouse IgG

[6] = target: T6, guinea pig whole molecule IgG (guinea pig); experiment: as above
T6 construct: Immobilised partner in SPR; also called Guinea Pig IgG

B1: gE-2t 417 (other)
chain: AAPRTSWKRVTSGEDVVLLPAPAGPEERTRAHKLLWAAEPLDACGPLRPSWVALWPPRRVLETVVDAACMRAPEPLAIAYSPPFPAGDEGLYSELAWRDRVAVVNESLVIYGALETDSGLYTLSVVGLSDEARQVASVVLVVEPAPVPTPTPDDYDEEDDAGVSERTPVSVPPPTPPRRPPVAPPTHPRVIPEVSHVRGVTVHMETPEAILFAPGETFGTNVSIHAIAHDDGPYAMDVVWMRFDVPSSCAEMRIYEACLYHPQLPECLSPADAPCAVSSWAYRLAVRSYAGCSRTTPPPRCFAEARMEPVPGLAWLASTVNLEFQHASPQHAGLYLCVVYVDDHIHAWGHMTISTAAQYRNAVVEQHLPQRQPEPVEPTRPHVRAPPPAPSARGPLR
notes: Monomer, mammalian expression; also called gE-2t 417 WT; gE-2t 417 wild type; not shown: glycine linker and thrombin-cleavable 6-Histidine tag
[1]
  binding result: binds
[2]
  RU Post Association: 5 RU
[3]
  RU Post Association: 4 RU
[4]
  RU Post Association: 11 RU
[5]
  RU Post Association: 10 RU
[6]
  RU Post Association: 5 RU
